Measured values: publication doi:10.1101/2021.09.14.460262 (bioRxiv, 2021)
Blank lines part the entries; values can stand above or below the molecule they belong to.

Columns and labels:
[1] = molecular target: mVDAC1 labelled with Alexa Fluor 532 C5-maleimide (UniProt Q60932); assay: MST
[2] = molecular target: mVDAC1 labelled with Alexa Fluor 532 C5-maleimide (UniProt Q60932 14-296, Alexa Fluor 532 C5-maleimide label); assay: MST
Chain of mVDAC1 labelled with Alexa Fluor 532 C5-maleimide (UniProt Q60932 14-296, Alexa Fluor 532 C5-maleimide label) (Q60932 14-296): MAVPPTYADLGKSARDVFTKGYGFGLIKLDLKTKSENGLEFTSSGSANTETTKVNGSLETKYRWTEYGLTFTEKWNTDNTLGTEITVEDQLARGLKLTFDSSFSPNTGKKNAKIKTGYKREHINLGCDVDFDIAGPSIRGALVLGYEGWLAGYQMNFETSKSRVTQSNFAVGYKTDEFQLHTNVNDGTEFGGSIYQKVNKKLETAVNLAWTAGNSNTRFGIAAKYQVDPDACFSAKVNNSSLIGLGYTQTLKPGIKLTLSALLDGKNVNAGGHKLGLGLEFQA

Chain of mVDAC1 labelled with Alexa Fluor 532 C5-maleimide (UniProt Q60932) (Q60932 14-296): as above

- Kd [1]: 37.1 µM
Molecule: caspase 8-cleaved recombinant BID (His-rtBID) (domain or fragment)

- Kd [2]: 1420 µM
B1: recombinant full length His6-BID (natural protein, UniProt P70444 1-195, looked up)
chain: MDSEVSNGSGLGAEHITDLLVFGFLQSSGCTRQELEVLGRELPVQAYWEADLEDELQTDGSQASRSFNQGRIEPDSESQEEIIHNIARHLAQIGDEMDHNIQPTLVRQLAAQFMNGSLSEEDKRNCLAKALDEVKTAFPRDMENDKAMLIMTMLLAKKVASHAPSLLRDVFHTTVNFINQNLFSYVRNLVRNEMD
